B1: GASP-2: member of the GASP family, two GASP motifs (protein)
chain: MTGAEIEPSAQAKPEKKAGEEVIAGPERENDVPLVVRPKVRTQATTGARPKTETKSVPAARPKTEAQAMSGARPKTEVQVMGGARPKTEAQGITGARPKTDARAVGGARSKTDAKAIPGARPKDEAQAWAQSEFGTEAVSQAEGVSQTNAVAWPLATAESGSVTKSKGLSMDRELVNVDAETFPGTQGQKGIQPWFGPGEETNMGSWCYSRPRAREEASNESGFWSADETSTASSFWTGEETSVRSWPREESNTRSRHRAKHQTNPRSRPRSKQEAYVDSWSGSEDEASNPFSFWVGENTNNLFRPRVREEANIRSKLRTNREDCFESESEDEFYKQSWVLPGEEANSRFRHRDKEDPNTALKLRAQKDVDSDRVKQEPRFEEEVIIGSWFWAEKEASLEGGASAICESEPGTEEGAIGGSAYWAEEKSSLGAVAREEAKPESEEEAIFGSWFWDRDEACFDLNPCPVYKVSDRFRDAAEELNASSRPQTWDEVTVEFKPGLFHGVGFRSTSPFGIPEEASEMLEAKPKNLELSPEGEEQESLLQPDQPSPEFTFQYDPSYRSVREIREHLRARESAESESWSCSCIQCELKIGSEEFEEFLLLMDKIRDPFIHEISKIAMGMRSASQFTRDFIRDSGVVSLIETLLNYPSSRVRTSFLENMIHMAPPYPNLNMIETFICQVCEETLAHSVDSLEQLTGIRMLRHLTMTIDYHTLIANYMSGFLSLLTTANARTKFHVLKMLLNLSENPAVAKKLFSAKALSIFVGLFNIEETNDNIQIVIKMFQNISNIIKSGKMSLIDDDFSLEPLISAFREFEELAKQLQAQIDNQNDPEVGQQS
modifications: [35S]-methionine labelled
B2: GASP-7: member of the second GASP subfamily, without GASP motif (protein)
chain: MGRTREAGCVAAGVVIGAGACYCVYRLAWGRDENEKIWDEDEESTDTSEIGVETVKGAKTNAGAGSGAKLQGDSEVKPEVSLGLEDCPGVKEKAHSGSHSGGGLEAKAKALFNTLKEQASAKAGKGARVGTISGNRTLAPSLPCPGGRGGGCHPTRSGSRAGGRASGKSKGKARSKSTRAPATTWPVRRGKFNFPYKIDDILSAPDLQKVLNILERTNDPFIQEVALVTLGNNAAYSFNQNAIRELGGVPIIAKLIKTKDPIIREKTYNALNNLSVNAENQGKIKTYISQVCDDTMVCRLDSAVQMAGLRLLTNMTVTNHYQHLLSYSFPDFFALLFLGNHFTKIQIMKLIINFTENPAMTRELVSCKVPSELISLFNKEWDREILLNILTLFENINDNIKNEGLASSRKEFSRSSLFFLFKESGVCVKKIKALANHNDLVVKVKVLKVLTKL
modifications: [35S]-methionine labelled
B3: mutant 380–1395: truncated mutant of GASP-1 that lacks the N-terminal part (protein)
chain: MTKEEAKTKARARAKQEARSEEEALIGTWFWATDESSMADEASIESSLQVEDESIIGSWFWTEEEASMGTGASSKSRPRTDGERIGDSLFGAREKTSMKTGAEATSESILAADDEQVIIGSWFWAGEEVNQEAEEETIFGSWFWVIDAASVESGVGVSCESRTRSEEEEVIGPWFWSGEQVDIEAGIGEEARPGAEEETIFGSWFWAENQTYMDCRAETSCDTMQGAEEEEPIIGSWFWTRVEACVEGDVNSKSSLEDKEEAMIPCFGAKEEVSMKHGTGVRCRFMAGAEETNNKSCFWAEKEPCMYPAGGGSWKSRPEEEEDIVNSWFWSRKYTKPEAIIGSWLWATEESNIDGTGEKAKLLTEEETIINSWFWKEDEAISEATDREESRPEAEEGDIIGSWFWAGEEDRLEPAAETREEDRLAAEKEGIVGSWFGAREETIRREAGSCSKSSPKAEEEEVIIGSWFWEEEASPEAVAGVGFESKPGTEEEEITVGSWFWPEEEASIQAGSQAVEEMESETEEETIFGSWFWDGKEVSEEAGPCCVSKPEDDEEMIVESWFWSRDKAIKETGTVATCESKPENEEGAIVGSWFEAEDEVDNRTDNGSNCGSRTLADEDEAIVGSWFWAGDEAHFESNPSPVFRAICRSTCSVEQEPDPSRRPQSWEEVTVQFKPGPWGRVGFPSISPFRFPKEAASLFCEMFGGKPRNMVLSPEGEDQESLLQPDQPSPEFPFQYDPSYRSVQEIREHLRAKESTEPESSSCNCIQCELKIGSEEFEELLLLMEKIRDPFIHEISKIAMGMRSASQFTRDFIRDSGVVSLIETLLNYPSSRVRTSFLENMIRMAPPYPNLNIIQTYICKVCEETLAYSVDSPEQLSGIRMIRHLTTTTDYHTLVANYMSGFLSLLATGNAKTRFHVLKMLLNLSENLFMTKELLSAEAVSEFIGLFNREETNDNIQIVLAIFENIGNNIKKETVFSDDDFNIEPLISAFHKVEKFAKELQGKTDNQNDPEGDQEN
modifications: [35S]-methionine labelled
B4: mutant C: derived from mutant 924–1395 by deletion of 45 AA from the C-terminus (protein, UniProt Q5JY77 924-1350, looked up, fragment)
chain: CCVSKPEDDEEMIVESWFWSRDKAIKETGTVATCESKPENEEGAIVGSWFEAEDEVDNRTDNGSNCGSRTLADEDEAIVGSWFWAGDEAHFESNPSPVFRAICRSTCSVEQEPDPSRRPQSWEEVTVQFKPGPWGRVGFPSISPFRFPKEAASLFCEMFGGKPRNMVLSPEGEDQESLLQPDQPSPEFPFQYDPSYRSVQEIREHLRAKESTEPESSSCNCIQCELKIGSEEFEELLLLMEKIRDPFIHEISKIAMGMRSASQFTRDFIRDSGVVSLIETLLNYPSSRVRTSFLENMIRMAPPYPNLNIIQTYICKVCEETLAYSVDSPEQLSGIRMIRHLTTTTDYHTLVANYMSGFLSLLATGNAKTRFHVLKMLLNLSENLFMTKELLSAEAVSEFIGLFNREETNDNIQIVLAIFENIGNNIK
B5: mutant D: derived from mutant 924–1395 by deletion of 95 AA from the C-terminus (protein, UniProt Q5JY77 924-1300, looked up, fragment)
chain: CCVSKPEDDEEMIVESWFWSRDKAIKETGTVATCESKPENEEGAIVGSWFEAEDEVDNRTDNGSNCGSRTLADEDEAIVGSWFWAGDEAHFESNPSPVFRAICRSTCSVEQEPDPSRRPQSWEEVTVQFKPGPWGRVGFPSISPFRFPKEAASLFCEMFGGKPRNMVLSPEGEDQESLLQPDQPSPEFPFQYDPSYRSVQEIREHLRAKESTEPESSSCNCIQCELKIGSEEFEELLLLMEKIRDPFIHEISKIAMGMRSASQFTRDFIRDSGVVSLIETLLNYPSSRVRTSFLENMIRMAPPYPNLNIIQTYICKVCEETLAYSVDSPEQLSGIRMIRHLTTTTDYHTLVANYMSGFLSLLATGNAKTRFHVLKML

Tests used:
Format in all cases: binding
[1] = test system: GST-fused GPCR C-tails; assay: GST-pull down, GPCR C-tails; settings: for interaction with GPCR C-tails: twelve GPCR C-tails
Text: (§1) cDNAs encoding the cytoplasmic C-tail of 14 GPCRs and 2 one-transmembrane receptors were cloned into the pGEX-2T prokaryotic expression vector downstream the GST sequence. The following pGEX constructs were engineered: pGEX-DOR encoding residues 314–372 of the δ-opioid receptor (referring to Swiss-Prot accession number U10504), pGEX-MOR encoding residues 334–400 of the µ-opioid receptor (L29301), pGEX-KOR encoding residues 326–380 of the κ–opioid receptor (U17298), pGEX-ORL1 encoding residues 315–370 of the opioid receptor-like 1 (X77130), pGEX-M1 encoding residues 414–460 of the muscarinic M1 acetylcholine receptor (X52068), pGEX-M2 encoding residues 436–466 of the muscarinic M2 acetylcholine receptor (M16404), pGEX- ADRB1 encoding residues 373–477 of the β1 adrenergic receptor (J03019), pGEX-ADRB2 encoding residues 322–413 of the β2 adrenergic receptor (P07550), pGEX-CALCR encoding residues 407–490 of the calcitonin receptor (L00587), pGEX-CNR2 encoding residues 295–360 of the cannabinoid type 2 receptor (P34972), pGEX-5HT7 encoding residues 380–445 of the 5-hydroxytryptamine 7 receptor (L21195), pGEX-H2 encoding residues 284–349 of the histamine 2 receptor (S57565), pGEX-TXA2 encoding residues 304–343 of the α isoform of the thromboxane A2 receptor (D38081), pGEX-FZ4 encoding residues 493–537 of the frizzled 4 receptor (AB032417), pGEX-TGFβ encoding residues 805–849 of the type III transforming growth factor b receptor (L07594), pGEX-IGF1 encoding residues 1268–1367 of the insulin growth factor I receptor (X04434). Free GST was produced by using the pGEX-4T3 expression vector without insert. The same plasmid was used to clone the cDNA encoding a central domain of GASP-1, corresponding to amino acids 380 to 1073, downstream the GST sequence. All these plasmids were transformed into the Escherichia coli BL21 strain and expression was induced using 1mM of isopropylthiogalactoside for 2 h at 37°C. Bacteria were then pelleted, resuspended in PBS supplemented with cOmplete protease inhibitors (Roche), lysed at 1.5 kbar using a basic Z cell disrupter (constant system) and finally the lysates were cleared by centrifugation (10,000g, 15 min, 4°C).
(§2) cDNAs encoding GASP-1 and GASP-2 were cloned into the pcDNA3 eukaryotic expression vectors. cDNAs encoding GASP-3, -6, -7, and -9 were subcloned into pcDNA3.1 vectors. All the clones were controlled by DNA sequencing. The in vitro production was performed by using the TNT Quick-coupled Transcription/Translation T7 kit (Promega) in presence of [^35S]-Methionine according to the instructions from the manufacturer.
GST-fusion proteins were immobilized on glutathione-coupled Sepharose beads (GE Healthcare) for 1 h at 4°C and incubated with [^35S]-labelled in vitro translated GASP proteins or their truncated or mutated forms in ice-cold binding buffer containing: 20 mM Tris-HCl pH 7.4, 150 mM NaCl, 1 mM EDTA, 1 mM DTT, 10% glycerol and 1% Triton X-100. The mixture was incubated for 1 h at 4°C with gentle rocking. The beads were washed five times with the same ice-cold buffer, resuspended in 30 µl SDS-PAGE sample buffer, incubated 10 min at 65°C, and pelleted for 60 s at 3000 g. The supernatants were then analyzed by SDS-PAGE, the gels were stained with Coomassie blue to visualize GST-fusion proteins, dried and analyzed using a Phosphor-imager (Personal Molecular Imager FX, Biorad) to visualize [^35S]-labelled GASPs. Quantification was performed with the Quantity One software (Biorad). GST-pull down quantification data were analyzed using GraphPad Prism 4.03 (GraphPad Software). Quantifications presented are means of at least three independent experiments. […]

[2] = test system: GST-fused IGF1 (insulin growth factor I receptor) C-tail; assay: GST-pull down, IGF1 C-tail; settings: non-GPCR control
Text: as §1, §2
(§3) GST-fusion proteins were immobilized on glutathione-coupled Sepharose beads (GE Healthcare) for 1 h at 4°C and incubated with [^35S]-labelled in vitro translated GASP proteins or their truncated or mutated forms in ice-cold binding buffer containing: 20 mM Tris-HCl pH 7.4, 150 mM NaCl, 1 mM EDTA, 1 mM DTT, 10% glycerol and 1% Triton X-100. The mixture was incubated for 1 h at 4°C with gentle rocking. The beads were washed five times with the same ice-cold buffer, resuspended in 30 µl SDS-PAGE sample buffer, incubated 10 min at 65°C, and pelleted for 60 s at 3000 g. The supernatants were then analyzed by SDS-PAGE, the gels were stained with Coomassie blue to visualize GST-fusion proteins, dried and analyzed using a Phosphor-imager (Personal Molecular Imager FX, Biorad) to visualize [^35S]-labelled GASPs. Quantification was performed with the Quantity One software (Biorad). GST-pull down quantification data were analyzed using GraphPad Prism 4.03 (GraphPad Software). Quantifications presented are means of at least three independent experiments.

[3] = test system: GST-fused TGFβ (type III transforming growth factor β receptor) C-tail; assay: GST-pull down, TGFβ C-tail; settings: non-GPCR control
Text: as §1, §2, §3

[4] = test system: GST-fused M1 C-tail; assay: GST-pull down, M1 C-tail; settings: compared with full-length GASP-1
Text: as §1, §2, §3

[5] = test system: GST-fused DOR C-tail; assay: GST-pull down, DOR C-tail; settings: compared with full-length GASP-1
Text: as §1, §2, §3

[6] = test system: GST-fused ADRB1 C-tail; assay: GST-pull down, ADRB1 C-tail; settings: compared with full-length GASP-1
Text: as §1, §2, §3

Row | Molecule | interaction with GPCR C-tails [1] | interaction with IGF1 C-tail [2] | interaction with TGFβ C-tail [3] | interaction of truncated GASP-1 with DOR C-tail [5] | further results
1 | B1 | medium to strong interactions | no interaction was detected | no interaction was detected | – | GASP input retained by GPCR C-tails ([1]; percent of GASP input): > 10%
2 | B2 | weak to medium interactions and weak | No interaction was detected | No interaction was detected | – | –
3 | B3 | – | – | – | interacted similarly | interaction of truncated GASP-1 with M1 C-tail (words) [4]: interacted similarly; interaction of truncated GASP-1 with ADRB1 C-tail (words) [6]: interacted similarly
4 | B4 | – | – | – | strong interaction | –
5 | B5 | – | – | – | completely lost | –
